B1: huSP34.6.6 Fab-HF (Fab, V domains shown)
VH: EVQLVESGGGLVQPGGSLRLSCAASGFTFSTYAMNWVRQAPGKGLEWVGRIRSKYNNYATYYADSVKGRFTISRDNSKNTLYLQMNSLRAEDTAMYYCVRHGNFGNSYVSWFAVWGQGTLVTVSS
VL: QAVVTQPPSLTVSPGGTVTLTCGSSTGAVTTGHYANWVQQKPGQAPRGLIGGTSNRAPGVPARFSGSLSGGKAALTISGAQPEDEAEYYCALWYSARWVFGGGTKLTVL
B2: huSP34.6.4 Fab-HF (Fab, V domains shown)
VH: EVQLVESGGGLVQPGGSLRLSCAASGFTFSTYAMNWVRQAPGKGLEWVGRIRSKYNNYATYYADSVKGRFTISRDNSKNTLYLQMNSLRAEDTAMYYCVRHGNFGNSYVSWFAVWGQGTLVTVSS
VL: QAVVTQEPSLTVSPGGTVTLTCGSSTGAVTTSHYANWVQQKPGQAPRGLIGGTSKRAPWTPARFSGSLLGGKAALTLSGAQPEDEAEYYCALWYSALWVFGGGTKLTVL
B3: huSP34.10.4 Fab-HF (Fab, V domains shown)
VH: EVQLVESGGGLVQPGGSLRLSCAASGFTFSDYAMNWVRQAPGKGLEWVGRTRSKYNSYATYYAASVKGRFTISRDDSKNSLYLQMNSLKTEDTAVYYCVRHGNFGHSYVSWFAVWGQGTLVTVSS
VL: QAVVTQEPSLTVSPGGTVTLTCGSSTGAVTTSHYANWVQQKPGQAPRGLIGGTSKRAPWTPARFSGSLLGGKAALTLSGAQPEDEAEYYCALWYSALWVFGGGTKLTVL
B4: huSP34.10.2 Fab-HF (Fab, V domains shown)
VH: EVQLVESGGGLVQPGGSLRLSCAASGFTFSDYAMNWVRQAPGKGLEWVGRTRSKYNSYATYYAASVKGRFTISRDDSKNSLYLQMNSLKTEDTAVYYCVRHGNFGHSYVSWFAVWGQGTLVTVSS
VL: QAVVTQEPSLTVSPGGTVTLTCGSSTGAVTTSNYANWVQQKPGQAPRGLIGGTSNRAPWTPARFSGSLLGGKAALTLSGAQPEDEAEYYCALWYSNLWVFGGGTKLTVL
B5: huSP34.8.6 Fab-HF (Fab, V domains shown)
VH: EVQLVESGGGLVQPGGSLRLSCAASGFTFSDYAMNWVRQAPGKGLEWVGRTRSKYNNYATYYAASVKGRFTISRDDSKNSLYLQMNSLKTEDTAVYYCVRHGNFGHSYVSWFAVWGQGTLVTVSS
VL: QAVVTQPPSLTVSPGGTVTLTCGSSTGAVTTGHYANWVQQKPGQAPRGLIGGTSNRAPGVPARFSGSLSGGKAALTISGAQPEDEAEYYCALWYSARWVFGGGTKLTVL
B6: huSP34.8.5 Fab-HF (Fab, V domains shown)
VH: EVQLVESGGGLVQPGGSLRLSCAASGFTFSDYAMNWVRQAPGKGLEWVGRTRSKYNNYATYYAASVKGRFTISRDDSKNSLYLQMNSLKTEDTAVYYCVRHGNFGHSYVSWFAVWGQGTLVTVSS
VL: QAVVTQEPSLTVSPGGTVTLTCGSSTGAVTTGHYANWVQQKPGQAPRGLIGGTSNRAPWTPARFSGSLLGGKAALTLSGAQPEDEAEYYCALWYSARWVFGGGTKLTVL
B7: huSP34.8.2 Fab-HF (Fab, V domains shown)
VH: EVQLVESGGGLVQPGGSLRLSCAASGFTFSDYAMNWVRQAPGKGLEWVGRTRSKYNNYATYYAASVKGRFTISRDDSKNSLYLQMNSLKTEDTAVYYCVRHGNFGHSYVSWFAVWGQGTLVTVSS
VL: QAVVTQEPSLTVSPGGTVTLTCGSSTGAVTTSNYANWVQQKPGQAPRGLIGGTSNRAPWTPARFSGSLLGGKAALTLSGAQPEDEAEYYCALWYSNLWVFGGGTKLTVL
B8: huSP34.10.5 Fab-HF (Fab, V domains shown)
VH: EVQLVESGGGLVQPGGSLRLSCAASGFTFSDYAMNWVRQAPGKGLEWVGRTRSKYNSYATYYAASVKGRFTISRDDSKNSLYLQMNSLKTEDTAVYYCVRHGNFGHSYVSWFAVWGQGTLVTVSS
VL: QAVVTQEPSLTVSPGGTVTLTCGSSTGAVTTGHYANWVQQKPGQAPRGLIGGTSNRAPWTPARFSGSLLGGKAALTLSGAQPEDEAEYYCALWYSARWVFGGGTKLTVL
B9: huSP34.8.4 Fab-HF (Fab, V domains shown)
VH: EVQLVESGGGLVQPGGSLRLSCAASGFTFSDYAMNWVRQAPGKGLEWVGRTRSKYNNYATYYAASVKGRFTISRDDSKNSLYLQMNSLKTEDTAVYYCVRHGNFGHSYVSWFAVWGQGTLVTVSS
VL: QAVVTQEPSLTVSPGGTVTLTCGSSTGAVTTSHYANWVQQKPGQAPRGLIGGTSKRAPWTPARFSGSLLGGKAALTLSGAQPEDEAEYYCALWYSALWVFGGGTKLTVL
B10: huSP34.9.5 Fab-HF (Fab, V domains shown)
VH: EVQLVESGGGLVQPGGSLRLSCAASGFTFSDYAMNWVRQAPGKGLEWVGRTRSKYNSYATYYAASVKGRFTISRDDSKNSLYLQMNSLKTEDTAVYYCVRHGNFGNSYVSWFAVWGQGTLVTVSS
VL: QAVVTQEPSLTVSPGGTVTLTCGSSTGAVTTGHYANWVQQKPGQAPRGLIGGTSNRAPWTPARFSGSLLGGKAALTLSGAQPEDEAEYYCALWYSARWVFGGGTKLTVL
B11: huSP34.6.5 Fab-HF (Fab, V domains shown)
VH: EVQLVESGGGLVQPGGSLRLSCAASGFTFSTYAMNWVRQAPGKGLEWVGRIRSKYNNYATYYADSVKGRFTISRDNSKNTLYLQMNSLRAEDTAMYYCVRHGNFGNSYVSWFAVWGQGTLVTVSS
VL: QAVVTQEPSLTVSPGGTVTLTCGSSTGAVTTGHYANWVQQKPGQAPRGLIGGTSNRAPWTPARFSGSLLGGKAALTLSGAQPEDEAEYYCALWYSARWVFGGGTKLTVL
B12: huSP34.6.1 Fab-HF (Fab, V domains shown)
VH: EVQLVESGGGLVQPGGSLRLSCAASGFTFSTYAMNWVRQAPGKGLEWVGRIRSKYNNYATYYADSVKGRFTISRDNSKNTLYLQMNSLRAEDTAMYYCVRHGNFGNSYVSWFAVWGQGTLVTVSS
VL: QAVVTQEPSLTVSPGGTVTLTCRSSTGAVTTSNYANWVQQKPGQAPRGLIGGTNKRAPWTPARFSGSLIGDKAALTLSGAQPEDEAEYYCALWYSNLWVFGGGTKLTVL
B13: huSP34.8.1 Fab-HF (Fab, V domains shown)
VH: EVQLVESGGGLVQPGGSLRLSCAASGFTFSDYAMNWVRQAPGKGLEWVGRTRSKYNNYATYYAASVKGRFTISRDDSKNSLYLQMNSLKTEDTAVYYCVRHGNFGHSYVSWFAVWGQGTLVTVSS
VL: QAVVTQEPSLTVSPGGTVTLTCRSSTGAVTTSNYANWVQQKPGQAPRGLIGGTNKRAPWTPARFSGSLIGDKAALTLSGAQPEDEAEYYCALWYSNLWVFGGGTKLTVL
B14: huSP34.6.2 Fab-HF (Fab, V domains shown)
VH: EVQLVESGGGLVQPGGSLRLSCAASGFTFSTYAMNWVRQAPGKGLEWVGRIRSKYNNYATYYADSVKGRFTISRDNSKNTLYLQMNSLRAEDTAMYYCVRHGNFGNSYVSWFAVWGQGTLVTVSS
VL: QAVVTQEPSLTVSPGGTVTLTCGSSTGAVTTSNYANWVQQKPGQAPRGLIGGTSNRAPWTPARFSGSLLGGKAALTLSGAQPEDEAEYYCALWYSNLWVFGGGTKLTVL
B15: huSP34.9.2 Fab-HF (Fab, V domains shown)
VH: EVQLVESGGGLVQPGGSLRLSCAASGFTFSDYAMNWVRQAPGKGLEWVGRTRSKYNSYATYYAASVKGRFTISRDDSKNSLYLQMNSLKTEDTAVYYCVRHGNFGNSYVSWFAVWGQGTLVTVSS
VL: QAVVTQEPSLTVSPGGTVTLTCGSSTGAVTTSNYANWVQQKPGQAPRGLIGGTSNRAPWTPARFSGSLLGGKAALTLSGAQPEDEAEYYCALWYSNLWVFGGGTKLTVL
B16: huSP34.7.1 Fab-HF (Fab, V domains shown)
VH: EVQLVESGGGLVQPGGSLRLSCAASGFTFSDYAMNWVRQAPGKGLEWVGRTRSKYNNYATYYAASVKGRFTISRDDSKNSLYLQMNSLKTEDTAVYYCVRHGNFGNSYVSWFAVWGQGTLVTVSS
VL: QAVVTQEPSLTVSPGGTVTLTCRSSTGAVTTSNYANWVQQKPGQAPRGLIGGTNKRAPWTPARFSGSLIGDKAALTLSGAQPEDEAEYYCALWYSNLWVFGGGTKLTVL
B17: huSP34.9.4 Fab-HF (Fab, V domains shown)
VH: EVQLVESGGGLVQPGGSLRLSCAASGFTFSDYAMNWVRQAPGKGLEWVGRTRSKYNSYATYYAASVKGRFTISRDDSKNSLYLQMNSLKTEDTAVYYCVRHGNFGNSYVSWFAVWGQGTLVTVSS
VL: QAVVTQEPSLTVSPGGTVTLTCGSSTGAVTTSHYANWVQQKPGQAPRGLIGGTSKRAPWTPARFSGSLLGGKAALTLSGAQPEDEAEYYCALWYSALWVFGGGTKLTVL
B18: huSP34.10.1 Fab-HF (Fab, V domains shown)
VH: EVQLVESGGGLVQPGGSLRLSCAASGFTFSDYAMNWVRQAPGKGLEWVGRTRSKYNSYATYYAASVKGRFTISRDDSKNSLYLQMNSLKTEDTAVYYCVRHGNFGHSYVSWFAVWGQGTLVTVSS
VL: QAVVTQEPSLTVSPGGTVTLTCRSSTGAVTTSNYANWVQQKPGQAPRGLIGGTNKRAPWTPARFSGSLIGDKAALTLSGAQPEDEAEYYCALWYSNLWVFGGGTKLTVL
B19: huSP34.9.1 Fab-HF (Fab, V domains shown)
VH: EVQLVESGGGLVQPGGSLRLSCAASGFTFSDYAMNWVRQAPGKGLEWVGRTRSKYNSYATYYAASVKGRFTISRDDSKNSLYLQMNSLKTEDTAVYYCVRHGNFGNSYVSWFAVWGQGTLVTVSS
VL: QAVVTQEPSLTVSPGGTVTLTCRSSTGAVTTSNYANWVQQKPGQAPRGLIGGTNKRAPWTPARFSGSLIGDKAALTLSGAQPEDEAEYYCALWYSNLWVFGGGTKLTVL
B20: huSP34.3.10 Fab-HF (Fab, V domains shown)
VH: EVQLVESGGGLVQPGGSLRLSCAASGFTFNTYAMNWVRQAPGKGLEWVGRIRSKYNNYATYYADSVKGRFTISRDDSKNSLYLQMNSLRTEDTAVYYCVRHGNFGHSYVSWFAYWGQGTLVTVSS
VL: QAVVTQPPSLTVSPGGTVTLTCGSSTGAVTTGHYANWVQQKPGQAPRGLIGGTNKRAPGVPARFSGSLSGGKAALTISGAQPEDEAEYYCALWYSNRWVFGGGTKLTVL
notes: also called HC3+LC10

target: T1, CD3 expressed on cell-surface of primary human T cells (human, UniProt P07766 23-207; P04234 22-171); test: flow cytometry competition vs murine SP34-AF488 on human T cells, n = 1
T1 construct: also called cell-surface CD3; human CD3
Procedure: Binding of humanized SP34 Fab variants to CD3 expressed on cell-surface of primary human T cells was evaluated in a flow cytometry-based competition assay.

Binder	IC50
B1	> 20 µg/mL
B2	> 20 µg/mL
B3	> 20 µg/mL
B4	> 20 µg/mL
B5	> 20 µg/mL
B6	> 20 µg/mL
B7	> 20 µg/mL
B8	> 20 µg/mL
B9	> 20 µg/mL
B10	> 20 µg/mL
B11	> 20 µg/mL
B12	> 20 µg/mL
B13	> 20 µg/mL
B14	> 20 µg/mL
B15	> 20 µg/mL
B16	> 20 µg/mL
B17	> 20 µg/mL
B18	> 20 µg/mL
B19	> 20 µg/mL

target: T2, biotinylated CD3 epsilon:delta heterodimer protein (Amsbio AMS.CDD-H52WO) (Homo sapiens (Human), UniProt P07766 23-126; P04234 22-105); test: BLI (Octet), CD3 on SA sensor, Fab analyte
T2 construct: also called CD3 heterodimer
Procedure: (§1) The CD3 binding kinetics of the purified huSP34 Fabs were determined using OctetRed384 (Pall ForteBio, CA) biolayer interferometry (BLI). […] Streptavidin (SA) coated biosensors tips (Pall ForteBio, CA) were used to capture biotinylated CD3 epsilon: delta heterodimer and typical immobilization levels captured on the SA sensors were 1 nm which approximately translates to 300 ng/ml of captured protein. For kinetic measurements biosensors were first pre-wetted with assay buffer for 10 minutes to remove protective sucrose coating followed by the recommended regeneration conditions for standardization of the biosensor surface for the experiment. In order to load the biosensors with antigen, 300 ng/ml of biotinylated CD3 epsilon: delta heterodimer protein (Amsbio AMS.CDD-H52WO) was immobilized on the SA sensor for 900 seconds. The CD3 loaded biosensors were then blocked with 20 ug/ml biocytin (sigma) for 200 seconds and then dipped into assay buffer containing wells for 200 seconds to remove any non-specific protein or unbound CD3 heterodimer.
(§2) CD3 loaded and biocytin blocked biosensors were then transferred into fresh assay buffer for 200 seconds to collect a baseline read. Kinetic measurements for anti-CD3 Fab and bispecific antibody binding were performed by dipping the CD3-coated biosensors into wells containing multiple concentrations of Fab or Ab (0-300 nM) for 100 seconds followed by a 300 second dissociation time by transferring the biosensors into assay buffer containing wells. The CD3 loaded sensors were then regenerated for the next kinetic measurement. Biosensors were generated by removing bound Fabs or Ab from immobilized CD3 on SA biosensors. Regeneration conditions used consisted of 3 cycles of 5 seconds of dipping the biosensors in Regeneration Buffer (10 mM Glycine HCl pH 1.5) followed by Assay Buffer (10 mM sodium phosphate pH 7.4, 140 mM Sodium Chloride, 0.005% Tween20 with 0.2% BSA).

Binder	Kd	koff	kon
B20	2.3 nM	0.000235 s⁻¹	142000 M⁻¹ s⁻¹

target: T2, biotinylated CD3 epsilon:delta …; test: BLI (Octet), CD3 on SA sensor, Fab analyte; remark: another data set of the same source
Procedure: as §1, §2

Binder	Kd	koff	kon
B20	2 nM	0.00137 s⁻¹	683000 M⁻¹ s⁻¹

From patent US20230056252A1 (Gilead, published 2023)
